Laboratory results from US20250060376A1 (PLASMARKER BIOTECHNOLOGY, published 2025).

T1: fragment DIR-II (last 27 amino acids of the sequence encoded by the retained intron of DIR) (human)
T1 construct: also called target fragment DIR-II
T1 peptide: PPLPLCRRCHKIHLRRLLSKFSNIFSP

T2: DNA damage-inducible transcript 4-like (DDIT4L) intron retention spliced product (DIR) protein (human)
T2 construct: 84 aa spliced product peptide; also called QDLIR; human DIR
T2 chain: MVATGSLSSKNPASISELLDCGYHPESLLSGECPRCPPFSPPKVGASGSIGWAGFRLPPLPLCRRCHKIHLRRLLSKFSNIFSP


Key:
[1] = biological target: T1, fragment DIR-II (last 27 amino acids of …); assay: ELISA, DIR-II coated; mAb (1 mg/mL) diluted 1:2k
Procedure: (§1) The binding activity of the above antibodies IR-II-1 to IR-II-10 to fragments DIR-II was detected. The method specifically comprises:
(§2) The target fragment DIR-II was coated on a 96-well plate using a coating buffer and blocked with a blocking buffer. […] Then, a secondary antibody with horseradish peroxidase (1:5k) was added and incubated at 37° C. After washing three times, an appropriate volume of TMB substrate solution was added, and the resulting mixture was incubated at 37° C. for a certain period of time, and then placed under a microplate reader to record the absorbance value of the sample at a wavelength of 450 nm.

[2] = biological target: T1, fragment DIR-II (last 27 amino acids of …); assay: ELISA, DIR-II coated; mAb (1 mg/mL) diluted 1:6k
Procedure: as §1, §2

[3] = biological target: T1, fragment DIR-II (last 27 amino acids of …); assay: ELISA, DIR-II coated; mAb (1 mg/mL) diluted 1:18k
Procedure: as §1, §2

[4] = biological target: T1, fragment DIR-II (last 27 amino acids of …); assay: ELISA, DIR-II coated; mAb (1 mg/mL) diluted 1:54k
Procedure: as §1, §2

[5] = biological target: T1, fragment DIR-II (last 27 amino acids of …); assay: ELISA, DIR-II coated; mAb (1 mg/mL) diluted 1:162k
Procedure: as §1, §2

[6] = biological target: T1, fragment DIR-II (last 27 amino acids of …); assay: ELISA, DIR-II coated; mAb (1 mg/mL) diluted 1:486k
Procedure: as §1, §2

[7] = biological target: T1, fragment DIR-II (last 27 amino acids of …); assay: ELISA, DIR-II coated; mAb (1 mg/mL) diluted 1:1458k
Procedure: as §1, §2

[8] = biological target: T1, fragment DIR-II (last 27 amino acids of …); assay: ELISA, DIR-II coated; mAb (1 mg/mL) diluted 1:4374k
Procedure: as §1, §2

[9] = biological target: T2, DNA damage-inducible transcript 4-like …; assay: sandwich ELISA, capture antibody GL Biochem AB009458, detection antibody IR-II-6 (method of paragraph 444)
Procedure: Methods for collecting venous blood and obtaining plasma: The blood was collected from the vein in cubital fossa of a patient into an EDTA vacuum tube by using the vacuum blood collection technique, and the tube was immediately inverted gently 8 times to fully mix the blood and an anticoagulant. Then, the tube was transported to the laboratory on ice, centrifuged for 10 min at 1500 g at 4° C., and the supernatant was aspirated, aliquoted, and stored at −80° C.
ELISA method for plasma: The plasma sample was diluted at 1:1 with 1× diluent (OBT1998G, purchased from Bio-Rad); then, 100 μl of a blocking solution was added using a pipette for blockage for 1 h at 37° C.; then, 100 μl of a proportionally diluted standard and diluted plasma were added into plate wells coated with capture antibodies (GL Biochem, AB009458) by using the pipette, the tip of which was changed for each sampling; the resulting mixture was incubated for 1.5 h at 37° C.; the liquid in each well was removed, and the well was washed 3 times with 100 μl 1× washing solution (BUF031C, purchased from Bio-Rad); 100 μl of detection antibody (i. e., the DIR antibody IR-II-6, of which a VH amino acid sequence was as set forth in SEQ ID NO. 58, and of which a VL amino acid sequence was as set forth in SEQ ID NO. […]

| Binder | absorbance at 450 nm [1] | absorbance at 450 nm [2] | absorbance at 450 nm [3] | absorbance at 450 nm [4] | absorbance at 450 nm [5] | absorbance at 450 nm [6] | absorbance at 450 nm [7] | absorbance at 450 nm [8] | binding result [9] |
| --- | --- | --- | --- | --- | --- | --- | --- | --- | --- |
| DIR antibody IR-II-10 (A2D10) (antibody, V domains shown, Monoclonal antibody) VH: EVQLQQSGPELVKPGASVKISCKTSGYTFTEYTMHWVKQSHGKSLEWIGGIYPHNGGTNYNQKFKGKATLTVDKSSSTAYMELRSLTSEDSAVYYCTEDLTFDYWGQGTTLTVSS VL: DIQMTQTTSSLSASLGDRVTISCSASQDISNYLNWYQQKPDGTVKLLIYYTSSLHSGVPSRFSGSGSGTDYSLTISNLEPEDIATYHCLQYSKLPFTFGSGTKLEIK | 2.01 absorbance (450 nm) | 0.472 absorbance (450 nm) | 0.142 absorbance (450 nm) | 0.0783 absorbance (450 nm) | 0.0517 absorbance (450 nm) | 0.0517 absorbance (450 nm) | 0.0501 absorbance (450 nm) | 0.0427 absorbance (450 nm) |  |
| DIR antibody IR-II-1 (antibody, V domains shown, Monoclonal antibody) VH: QVQLKESGAELMKPGASVKISCKATGYTFSSYWIEWVKQRPGHGLEWIGEILPGSGTTNYNDKFKGKATFTADTSSNTAYMQLSNLTSEDSAVYYCARSYDGYYVFDYWGQGTTLTVSS VL: DIELTQSPASLAVSLGQRATISCKASQSVDYDGDSYMNWYQQKPGQPPKLLIYAASNLESGIPARFSGSGSGTDFTLNIHPVEEEDAATYYCQQSNEDPRTFGGGTKLEIK | 3.14 absorbance (450 nm) | 2.98 absorbance (450 nm) | 0.818 absorbance (450 nm) | 0.264 absorbance (450 nm) | 0.109 absorbance (450 nm) | 0.0656 absorbance (450 nm) | 0.0653 absorbance (450 nm) | 0.0934 absorbance (450 nm) |  |
| DIR antibody IR-II-4 (antibody, V domains shown, Monoclonal antibody) VH: QVQLQQSGAELMKPGASVKISCKATGYTFSSYWIEWVKQRPGHGLEWIGEILPGSGSTNYNEKFKGKATFTADTSSNTAYMQLNSLTSEDSAVYYCARTDDGYLSYFAMDYWGQGTSVTVSS VL: DILMTQTPASLAVSLGQRATISCKASQSVDYDGDSYMNWYQQKPGQPPKLLIYAASNLESGIPARFSGSGSGTDFTLNIHPVEEEDAATYYCQQSNEDPRTFGGGTKLEIK | 3.3 absorbance (450 nm) | 1.77 absorbance (450 nm) | 0.555 absorbance (450 nm) | 0.186 absorbance (450 nm) | 0.136 absorbance (450 nm) | 0.0955 absorbance (450 nm) | 0.0751 absorbance (450 nm) | 0.0775 absorbance (450 nm) |  |
| DIR antibody IR-II-8 (antibody, V domains shown, Monoclonal antibody) VH: QVQLQQSGAELMKPGASVKISCKATGYTFSNYWIEWVKQRPGHGLEWIGEILPGSGSTNYNEKFKGKATFTADTSSNTAYMQLSSLTSEDSAVYYCARSGMITTRGDYFAMDYWGQGTSVTVSS VL: DIELTQSPASLAVSLGQRATISCKASQSVDYDGESYMNWYQQKPGQPPKLLIYAASNLESGIPARFSGSGSGTDFTLNIHPVEEEDAATYYCQQSNDDPRTFGGGTKLEIK | 3.2 absorbance (450 nm) | 0.87 absorbance (450 nm) | 0.257 absorbance (450 nm) | 0.138 absorbance (450 nm) | 0.0911 absorbance (450 nm) | 0.0864 absorbance (450 nm) | 0.0906 absorbance (450 nm) | 0.0887 absorbance (450 nm) |  |
| DIR antibody IR-II-6 (antibody, V domains shown, Monoclonal antibody; also called detection antibody) VH: QVQLQQSGAELMKPGASVKISCKATGYTFSRYWIEWIKQRPGHGLEWIGEILPGSYYSTNSNEKFKGKATFTADTSSNTAYMQLSSLTSEDSAVYYCARSGVITTRGDYFAMDYWGHGTSVTVSS VL: DIVLTQSPASLAVSLGQRATISCKASQSVDYDGDSYMNWYQQKPGQPPKLLMYAASNLESGIPARFSGSGSGTDFTLNIHPVEEEDAATYYCQQSNEDPRTFGGGTKLEIK | 3.09 absorbance (450 nm) | 3.18 absorbance (450 nm) | 2.01 absorbance (450 nm) | 0.78 absorbance (450 nm) | 0.414 absorbance (450 nm) | 0.306 absorbance (450 nm) | 0.2 absorbance (450 nm) | 0.18 absorbance (450 nm) | binds |
| DIR antibody IR-II-2 (antibody, V domains shown, Monoclonal antibody) VH: EVQLQQSGAELMKPGASVKISCKATGYTFSSYWIEWVKQRPGHGLEWIGEILPGSGTTNYNEKFKGKATFTVDTSSNTAYMQLSSLTSEDSAVYYCARSGVITARGDYYAMDYWGQGTSVTVSS VL: DIVMTQSPASLAVSLGQRATISCKASQSVDYDGDSYMNWYQQKPGQPPKLLIYAASNLDSGIPARFSGSGSGTDFTLNIHPVEEEDAATYYCQQSNEDPRTFGGGTKLEIK | 3.23 absorbance (450 nm) | 1.62 absorbance (450 nm) | 0.823 absorbance (450 nm) | 0.193 absorbance (450 nm) | 0.14 absorbance (450 nm) | 0.112 absorbance (450 nm) | 0.0839 absorbance (450 nm) | 0.115 absorbance (450 nm) |  |
| DIR antibody IR-II-5 (antibody, V domains shown, Monoclonal antibody) VH: QVQLQQSGAEVMKPGASVKISCKATGYTFSSYWIEWIKQRPGHGLEWIGEILPGGYNTNSNENFKGKATFTADTSSNTAYMQLSSLTSEDSAVYYCARSGMITTTGDYYAMDYWGQGTSVTVSS VL: DIELTQSPASLAVSLGQRATISCKASQSVDYDGESYMNWYQQKPGQPPKLLIYAASNLESGIPARFSGSGSGTDFTLNIHPVEEEDAATYYCQQSNDDPRTFGGGTKLEIK | 3.24 absorbance (450 nm) | 1.31 absorbance (450 nm) | 0.387 absorbance (450 nm) | 0.159 absorbance (450 nm) | 0.19 absorbance (450 nm) | 0.285 absorbance (450 nm) | 0.0911 absorbance (450 nm) | 0.0868 absorbance (450 nm) |  |
| DIR antibody IR-II-9 (antibody, V domains shown, Monoclonal antibody) VH: QVQLQQSGAELMKPGASVKISCKATGYTFSRYWIEWIKQRPGHGLEWIGEILPGSYYSTNSNEKFKGKATFTADTSSNTAYMQLSSLTSEDSAVYYCARSGVITTRGDYFAMDYWGHGTSVTVSS VL: DIELTQSPASLAVSLGQRATISCKASQSVDYDGESYMNWYQQKPGQPPKLLIYAASNLESGIPARFSGSGSGTDFTLNIHPVEEEDAATYYCQQSYDDPRAFGGGTKLEIK | 3.11 absorbance (450 nm) | 3.27 absorbance (450 nm) | 1.87 absorbance (450 nm) | 0.622 absorbance (450 nm) | 0.318 absorbance (450 nm) | 0.207 absorbance (450 nm) | 0.169 absorbance (450 nm) | 0.193 absorbance (450 nm) |  |
| DIR antibody IR-II-3 (antibody, V domains shown, Monoclonal antibody) VH: EVQLQQSGAELMKPGASVKISCKATGYTFSNYWIEWIKQRPGHGLEWIGEILPGSYYSTNYNEKFKGKATFTADTSSNTAYIQLSSLTSEDSAVYYCARSGMITTRGDYFAMDYWGQGTSVTVSS VL: not shown | 3.05 absorbance (450 nm) | 3.05 absorbance (450 nm) | 1.27 absorbance (450 nm) | 0.4 absorbance (450 nm) | 0.366 absorbance (450 nm) | 0.173 absorbance (450 nm) | 0.166 absorbance (450 nm) | 0.153 absorbance (450 nm) |  |
| DIR antibody IR-II-7 (antibody, V domains shown, Monoclonal antibody) VH: QVQLQQSGAELMKPGASVKISCKATGYTFSNYWIEWIKQRPGHGLEWIGEILPGSYYSTNYNEKFKDKATFTADTSSNTAYIQLSSLTSEDSAVYYCARSGIITTRGDYFAMDYWGQGTSVTVSS VL: DIVLTQSPASLAVSLGQRATISCKASQSVDYDGDSYMNWYQQKPGQPPKLLMYAASNLESGIPARFSGSGSGTDFTLNIHPVEEEDAATYYCQQSNEDPRTFGGGTKLEIK | 3.09 absorbance (450 nm) | 2.98 absorbance (450 nm) | 1.16 absorbance (450 nm) | 0.35 absorbance (450 nm) | 0.164 absorbance (450 nm) | 0.121 absorbance (450 nm) | 0.103 absorbance (450 nm) | 0.0867 absorbance (450 nm) |  |
